Test results published in the supplement of paper PMC9112550, “Optimization of the antimicrobial peptide Bac7 by deep mutational scanning” (BMC Biology, 2022).

The sequences below were run on Escherichia coli TOP10 (assay: shrunken log2 fold change of peptide-encoding DNA abundance (4.5 h post-induction vs induction); higher = less antimicrobial activity (less host growth inhibition)). Settings: time post-induction: 4.5 h; library: site-saturation at positions 5, 18, 19, 20.
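Note: peptides expressed intracellularly from a pBAD plasmid library in pooled LB shake-flask culture, induced with 0.3% L-arabinose, DNA abundance read by NGS, three biological replicates, DESeq2 with apeglm shrinkage.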

Row | Sequence | shrunken log2 fold change
1 | RRIRRRPPRLPRPRPRPFIRPRP | -0.326
2 | RRIRERPPRLPRPRPRPDAQPRP | 0.154
3 | RRIRNRPPRLPRPRPRPWIRPRP | -0.399
4 | RRIRFRPPRLPRPRPRPMWFPRP | -0.0145
5 | RRIRCRPPRLPRPRPRPDNHPRP | -0.719
6 | RRIRCRPPRLPRPRPRPQCIPRP | -0.458
7 | RRIRVRPPRLPRPRPRPFFDPRP | 1.19
8 | RRIRYRPPRLPRPRPRPSMDPRP | -1.85
9 | RRIRCRPPRLPRPRPRPPWHPRP | 0.0193
10 | RRIRLRPPRLPRPRPRPNQKPRP | -0.0744
11 | RRIRQRPPRLPRPRPRPVEIPRP | -0.0298
12 | RRIRNRPPRLPRPRPRPPQMPRP | 0.234
13 | RRIRCRPPRLPRPRPRPVYNPRP | -0.378
14 | RRIRSRPPRLPRPRPRPMVCPRP | 0.188
15 | RRIRNRPPRLPRPRPRPNIRPRP | -0.103
16 | RRIRERPPRLPRPRPRPKPNPRP | 0.0803
17 | RRIRMRPPRLPRPRPRPKQKPRP | 0.0402
18 | RRIRLRPPRLPRPRPRPNPRPRP | 0.304
19 | RRIRTRPPRLPRPRPRPHEHPRP | -0.0451
20 | RRIRMRPPRLPRPRPRPLTWPRP | 0.308
21 | RRIRLRPPRLPRPRPRPNIKPRP | -0.321
22 | RRIRCRPPRLPRPRPRPLNRPRP | -0.413
23 | RRIRCRPPRLPRPRPRPQGFPRP | -0.0235
24 | RRIRCRPPRLPRPRPRPSVIPRP | -0.0544
25 | RRIRHRPPRLPRPRPRPCWLPRP | -0.0661

Row | Sequence | shrunken log2 fold change
26 | RRIRWRPPRLPRPRPRPLCCPRP | 0.0117
27 | RRIRERPPRLPRPRPRPWVMPRP | -0.32
28 | RRIRERPPRLPRPRPRPCSSPRP | 0.00543
29 | RRIRDRPPRLPRPRPRPWPTPRP | 0.104
30 | RRIRCRPPRLPRPRPRPMFYPRP | -0.525
31 | RRIRCRPPRLPRPRPRPLFKPRP | -0.475
32 | RRIRDRPPRLPRPRPRPSNVPRP | -0.0805
33 | RRIRERPPRLPRPRPRPPTIPRP | -0.0452
34 | RRIRDRPPRLPRPRPRPMFQPRP | -0.0111
35 | RRIRNRPPRLPRPRPRPSRFPRP | -0.0872
36 | RRIRFRPPRLPRPRPRPQQKPRP | 0.0925
37 | RRIRVRPPRLPRPRPRPSSSPRP | -0.113
38 | RRIRFRPPRLPRPRPRPIPMPRP | -0.428
39 | RRIRVRPPRLPRPRPRPLQMPRP | 0.312
40 | RRIRDRPPRLPRPRPRPLPWPRP | 0.572
41 | RRIRFRPPRLPRPRPRPMRDPRP | 0.109
42 | RRIRVRPPRLPRPRPRPQFKPRP | -0.576
43 | RRIRCRPPRLPRPRPRPRNEPRP | -0.0561
44 | RRIRVRPPRLPRPRPRPMSLPRP | 0.0447
45 | RRIRLRPPRLPRPRPRPYLGPRP | -0.425
46 | RRIRIRPPRLPRPRPRPSPGPRP | -0.552
47 | RRIRIRPPRLPRPRPRPHYSPRP | -1.15
48 | RRIRERPPRLPRPRPRPAWSPRP | 0.233
49 | RRIRARPPRLPRPRPRPREWPRP | -0.0253
50 | RRIRKRPPRLPRPRPRPIPQPRP | -0.184

Row | Sequence | shrunken log2 fold change
51 | RRIRWRPPRLPRPRPRPYWNPRP | -0.645
52 | RRIRARPPRLPRPRPRPQMPPRP | 0.465
53 | RRIRMRPPRLPRPRPRPTTDPRP | 0.815
54 | RRIRPRPPRLPRPRPRPEVDPRP | 0.155
55 | RRIRIRPPRLPRPRPRPCAQPRP | -0.485
56 | RRIRCRPPRLPRPRPRPCKFPRP | -0.431
57 | RRIRGRPPRLPRPRPRPGMLPRP | 0.498
58 | RRIRARPPRLPRPRPRPRHGPRP | 0.343
59 | RRIRERPPRLPRPRPRPDLFPRP | 0.462
60 | RRIRARPPRLPRPRPRPQYGPRP | -0.442
61 | RRIRRRPPRLPRPRPRPSPTPRP | 0.598
62 | RRIRLRPPRLPRPRPRPTNYPRP | -0.251
63 | RRIRERPPRLPRPRPRPDFHPRP | -0.498
64 | RRIRMRPPRLPRPRPRPCPFPRP | -0.241
65 | RRIRTRPPRLPRPRPRPNNRPRP | -0.754
66 | RRIRMRPPRLPRPRPRPFYPPRP | -0.401
67 | RRIRDRPPRLPRPRPRPTCSPRP | 0.112
68 | RRIRNRPPRLPRPRPRPRCCPRP | -0.247
69 | RRIRKRPPRLPRPRPRPCHSPRP | -0.0177
70 | RRIRIRPPRLPRPRPRPKEGPRP | 0.00692
71 | RRIRQRPPRLPRPRPRPTEAPRP | -0.0735
72 | RRIRDRPPRLPRPRPRPYHLPRP | -0.0628
73 | RRIRWRPPRLPRPRPRPPARPRP | 0.726
74 | RRIRPRPPRLPRPRPRPRKAPRP | 0.0787
75 | RRIRKRPPRLPRPRPRPKLYPRP | 0.164

Row | Sequence | shrunken log2 fold change
76 | RRIRWRPPRLPRPRPRPSEHPRP | -0.0852
77 | RRIRMRPPRLPRPRPRPKPPPRP | 1.64
78 | RRIRDRPPRLPRPRPRPMKMPRP | 0.0275
79 | RRIRHRPPRLPRPRPRPPLNPRP | -0.0242
80 | RRIRMRPPRLPRPRPRPLVDPRP | 0.526
81 | RRIRARPPRLPRPRPRPGWNPRP | 0.545
82 | RRIRKRPPRLPRPRPRPGDSPRP | 0.163
83 | RRIRIRPPRLPRPRPRPCIIPRP | -0.467
84 | RRIRTRPPRLPRPRPRPEIEPRP | -0.299
85 | RRIRQRPPRLPRPRPRPWCPPRP | -0.261
86 | RRIRNRPPRLPRPRPRPWRYPRP | -0.0121
87 | RRIRTRPPRLPRPRPRPNYVPRP | -0.35
88 | RRIRSRPPRLPRPRPRPSIHPRP | -0.479
89 | RRIRERPPRLPRPRPRPRYEPRP | -0.276
90 | RRIRLRPPRLPRPRPRPQGLPRP | -0.0348
91 | RRIRRRPPRLPRPRPRPGRAPRP | 0.648
92 | RRIRDRPPRLPRPRPRPTITPRP | 0.0537
93 | RRIRLRPPRLPRPRPRPPAMPRP | 0.42
94 | RRIRKRPPRLPRPRPRPKHTPRP | 0.281
95 | RRIRWRPPRLPRPRPRPTADPRP | 1.51
96 | RRIRYRPPRLPRPRPRPPSNPRP | -0.266
97 | RRIRVRPPRLPRPRPRPFERPRP | 0.0254
98 | RRIRWRPPRLPRPRPRPVTTPRP | -0.0727
99 | RRIRQRPPRLPRPRPRPDLLPRP | 0.126
100 | RRIRDRPPRLPRPRPRPKGHPRP | 0.0517

Row | Sequence | shrunken log2 fold change
101 | RRIRYRPPRLPRPRPRPYMWPRP | -0.43
102 | RRIRKRPPRLPRPRPRPTMEPRP | 0.204
103 | RRIRTRPPRLPRPRPRPWIMPRP | -0.621
104 | RRIRARPPRLPRPRPRPWIFPRP | -0.114
105 | RRIRGRPPRLPRPRPRPLKKPRP | 0.195
106 | RRIRRRPPRLPRPRPRPEPEPRP | 0.837
107 | RRIRRRPPRLPRPRPRPEMQPRP | 0.114
108 | RRIRMRPPRLPRPRPRPPCVPRP | 0.389
109 | RRIRFRPPRLPRPRPRPCHFPRP | -0.00959
110 | RRIRLRPPRLPRPRPRPYTRPRP | -0.0648
111 | RRIRARPPRLPRPRPRPPVIPRP | 0.0687
112 | RRIRERPPRLPRPRPRPYTKPRP | -0.277
113 | RRIRDRPPRLPRPRPRPYMKPRP | -0.152
114 | RRIRFRPPRLPRPRPRPNVHPRP | -0.339
115 | RRIRIRPPRLPRPRPRPFKHPRP | -1.2
116 | RRIRTRPPRLPRPRPRPKNTPRP | -0.508
117 | RRIRPRPPRLPRPRPRPSYMPRP | -0.962
118 | RRIRDRPPRLPRPRPRPCMVPRP | 0.0359
119 | RRIRQRPPRLPRPRPRPFGYPRP | -0.148
120 | RRIRCRPPRLPRPRPRPQRNPRP | -0.0392
121 | RRIRSRPPRLPRPRPRPHFQPRP | -0.275
122 | RRIRSRPPRLPRPRPRPRAVPRP | 0.582
123 | RRIRNRPPRLPRPRPRPVIVPRP | -0.112
124 | RRIRNRPPRLPRPRPRPPMMPRP | 0.0507
125 | RRIRCRPPRLPRPRPRPNEKPRP | -0.00225

Row | Sequence | shrunken log2 fold change
126 | RRIRTRPPRLPRPRPRPINQPRP | -0.274
127 | RRIRIRPPRLPRPRPRPRYNPRP | -0.588
128 | RRIRIRPPRLPRPRPRPCTWPRP | -0.227
129 | RRIRWRPPRLPRPRPRPIMMPRP | -0.312
130 | RRIRTRPPRLPRPRPRPMGTPRP | -0.0546
131 | RRIRFRPPRLPRPRPRPEAEPRP | 0.684
132 | RRIRERPPRLPRPRPRPRFYPRP | -0.115
133 | RRIRHRPPRLPRPRPRPKRSPRP | 0.0325
134 | RRIRQRPPRLPRPRPRPVPEPRP | 0.203
135 | RRIRARPPRLPRPRPRPSFHPRP | -0.215
136 | RRIRMRPPRLPRPRPRPDDIPRP | -0.00151
137 | RRIRERPPRLPRPRPRPKYQPRP | -0.601
138 | RRIRNRPPRLPRPRPRPYYQPRP | -0.697
139 | RRIRCRPPRLPRPRPRPTWFPRP | 0.141
140 | RRIRVRPPRLPRPRPRPPAQPRP | 0.223
141 | RRIRGRPPRLPRPRPRPHMVPRP | -0.0598
142 | RRIRCRPPRLPRPRPRPGQWPRP | -0.125
143 | RRIRFRPPRLPRPRPRPWCSPRP | -0.714
144 | RRIRPRPPRLPRPRPRPSHVPRP | -0.544
145 | RRIRARPPRLPRPRPRPVYVPRP | 0.111
146 | RRIRHRPPRLPRPRPRPMSQPRP | -0.151
147 | RRIRLRPPRLPRPRPRPMYYPRP | -0.0423
148 | RRIRNRPPRLPRPRPRPAPHPRP | 0.227
149 | RRIRKRPPRLPRPRPRPSLPPRP | -0.0153
150 | RRIRPRPPRLPRPRPRPSHFPRP | -0.399
